The record followed here is PMC8677511.

The series concerns the target TDP-43 recombinant (rTDP-43) (UniProt Q13148 1-414). The series can be described thus: pull-down.

TDP-43 recombinant (rTDP-43), sequence (Q13148 whole entry): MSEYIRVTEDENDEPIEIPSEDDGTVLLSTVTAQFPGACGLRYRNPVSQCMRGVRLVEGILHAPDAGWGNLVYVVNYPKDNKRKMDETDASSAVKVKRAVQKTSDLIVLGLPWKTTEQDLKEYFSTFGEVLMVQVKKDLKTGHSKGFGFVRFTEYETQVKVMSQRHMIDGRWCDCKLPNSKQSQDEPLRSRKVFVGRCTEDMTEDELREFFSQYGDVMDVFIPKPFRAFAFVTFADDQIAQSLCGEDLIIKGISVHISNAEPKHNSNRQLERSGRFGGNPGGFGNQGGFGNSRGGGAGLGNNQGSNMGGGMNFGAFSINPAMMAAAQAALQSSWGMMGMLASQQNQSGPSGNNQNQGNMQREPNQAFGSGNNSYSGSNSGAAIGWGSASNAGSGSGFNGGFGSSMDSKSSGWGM

B1: GRN (nt262-288) probe (ssRNA)
RNA: UGUGUGUGUGUGCGCGUGUGCGUGUG
In the case of B1, the binding result is recorded as “binds”.

B2: G3BP1 3' UTR probe (nt334-358) (ssRNA)
RNA: UUUUUUGUGUGUUAAUGGUGUGUG
As for B2, the binding result is recorded as “binds”.

B3: (AC)12 (ssRNA)
RNA: ACACACACACACACACACACACAC
In the case of B3, the binding result is “no binding”.
